Source: publication PMC4099074, “Palmitoylation of Gephyrin Controls Receptor Clustering and Plasticity of GABAergic Synapses” (PLoS Biology, 2014)
Where “and” joins values, the source holds several entries; their conditions need not be identical. Equal values may be shown once.

Target: the molecule itself
Assay: SEC; lysates of control and 2-BP-treated primary hippocampal neurons; fifteen fractions immunoblotted for gephyrin and PSD-95; reference proteins for size

B1: gephyrin, endogenous in primary hippocampal neurons (natural protein, UniProt Q8BUV3 1-769, looked up)
chain: MATEGMILTNHDHQIRVGVLTVSDSCFRNLAEDRSGINLKDLVQDPSLLGGTISAYKIVPDEIEEIKETLIDWCDEKELNLILTTGGTGFAPRDVTPEATKEVIEREAPGMALAMLMGSLNVTPLGMLSRPVCGIRGKTLIINLPGSKKGSQECFQFILPALPHAIDLLRDAIVKVKEVHDELEDLPSPPPPLSPPPTTSPHKQTEDKGVQCEEEEEEKKDSGVASTEDSSSSHITAAALAAKIPDSIISRGVQVLPRDTASLSTTPSESPRAQATSRLSTASCPTPKQIRRPDESKGVASRVGSLKARLPSCSSTYSVSEVQSRCSSKENILRASHSAVDITKVARRHRMSPFPLTSMDKAFITVLEMTPVLGTEIINYRDGMGRVLAQDVYAKDNLPPFPASVKDGYAVRAADGPGDRFIIGESQAGEQPTQTVMPGQVMRVTTGAPIPCGADAVVQVEDTELIRESDDGTEELEVRILVQARPGQDIRPIGHDIKRGECVLAKGTHMGPSEIGLLATVGVTEVEVNKFPVVAVMSTGNELLNPEDDLLPGKIRDSNRSTLLATIQEHGYPTINLGIVGDNPDDLLNALNEGISRADVIITSGGVSMGEKDYLKQVLDIDLHAQIHFGRVFMKPGLPTTFATLDIDGVRKIIFALPGNPVSAVVTCNLFVVPALRKMQGILDPRPTIIKARLSCDVKLDPRPEYHRCILTWHHQEPLPWAQSTGNQMSSRLMSMRSANGLLMLPPKTEQYVELHKGEVVDVMVIGRL
notes: gephyrin, endogenous; A fraction of it is palmitoylated on Cys212 and Cys284 (7.5% in mouse brain); also called native neuronal gephyrin; gephyrin (83 kDa); source: endogenous, lysates of primary hippocampal neurons (control and 2-BP-treated)
stoichiometry N: 6 and 9
